Experimental data as given in patent publication US20200247894A1 (Regeneron, published 2020).
Blank lines part the entries; values can stand above or below the binder they belong to.

Assays:
[1] = biological target: T1, D2 domain of human IL2Rγ extracellular domain expressed with a C-terminal myc-myc-hexahistidine tag (human); test: SPR, mAb captured on anti-hFc, 37 C
T1 construct: also called human IL2Rγ domain 2
T1 chain: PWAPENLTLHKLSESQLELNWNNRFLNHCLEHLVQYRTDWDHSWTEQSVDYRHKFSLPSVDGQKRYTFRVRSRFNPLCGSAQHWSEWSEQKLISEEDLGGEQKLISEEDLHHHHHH
Description: (§1) Equilibrium dissociation constants (KD values) for IL-2Rγ binding to purified anti-IL2Rγ monoclonal antibodies were determined using a Biacore 4000 instrument equipped with a real-time surface plasmon resonance biosensor. All binding studies were performed in 10 mM HEPES, 150 mM NaCl, 3 mM EDTA, and 0.05% v/v Surfactant Tween-20, pH 7.4 (HBS-ET) running buffer at 25° C. and 37° C. The Biacore sensor surface was first derivatized by amine coupling with a monoclonal mouse anti-human Fc antibody (GE, # BR-1008-39) to capture anti-IL2Rγ monoclonal antibodies.

[2] = biological target: T2, D1 domain of human IL-2Rγ extracellular domain expressed with a C-terminal myc-myc-hexahistidine tag (human); test: SPR, mAb captured on anti-hFc, 25 C
T2 construct: also called human IL2Rγ domain 1
T2 chain: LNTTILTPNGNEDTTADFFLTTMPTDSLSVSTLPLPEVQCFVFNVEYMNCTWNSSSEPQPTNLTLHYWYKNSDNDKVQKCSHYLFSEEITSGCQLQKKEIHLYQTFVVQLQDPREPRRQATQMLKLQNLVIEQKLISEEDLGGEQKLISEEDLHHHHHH
How it was run: (§2)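 KD and dissociative half-life come from rate constants obtained by 1:1 binding-model fits of real-time sensorgrams. Antibodies sit on an anti-human Fc capture surface, with HBS-ET (pH 7.4) as running buffer and an 8-10 minute dissociation phase.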

[3] = biological target: T3, human IL2Rγ (endogenously expressed on cells) (human, UniProt P31785 23-369); test: cell-based or functional assay
T3 sequence (looked up): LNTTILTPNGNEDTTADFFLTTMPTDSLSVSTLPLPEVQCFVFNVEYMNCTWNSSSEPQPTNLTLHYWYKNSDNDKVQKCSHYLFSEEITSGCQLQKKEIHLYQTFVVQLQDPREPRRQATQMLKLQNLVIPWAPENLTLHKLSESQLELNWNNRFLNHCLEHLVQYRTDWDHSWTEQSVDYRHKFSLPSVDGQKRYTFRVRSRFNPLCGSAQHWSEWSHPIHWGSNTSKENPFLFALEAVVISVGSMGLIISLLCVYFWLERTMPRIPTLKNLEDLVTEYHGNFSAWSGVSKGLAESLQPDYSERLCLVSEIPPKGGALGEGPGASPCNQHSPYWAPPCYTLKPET

[4] = biological target: T3, human IL2Rγ (endogenously expressed on …); test: cell-based or functional assay; remark: listed apart in the source
[5] = biological target: T2, D1 domain of human IL-2Rγ extracellular …; test: SPR, mAb captured on anti-hFc, 37 C
How it was run: as §2

[6] = biological target: T1, D2 domain of human IL2Rγ extracellular …; test: SPR, mAb captured on anti-hFc, 25 C
Description: as §1

[7] = biological target: T3, human IL2Rγ (endogenously expressed on …); test: cell-based or functional assay; remark: listed apart in the source
[8] = biological target: T4, Macaca fascicularis IL2Rγ extracellular domain expressed with a C-terminal myc-myc-hexahistidine tag (Macaca fascicularis); test: SPR Biacore 4000, anti-hFc-captured mAb, 37 C
T4 construct: whole entry is the tagged construct; also called mfIL-2Rg-MMH
T4 chain: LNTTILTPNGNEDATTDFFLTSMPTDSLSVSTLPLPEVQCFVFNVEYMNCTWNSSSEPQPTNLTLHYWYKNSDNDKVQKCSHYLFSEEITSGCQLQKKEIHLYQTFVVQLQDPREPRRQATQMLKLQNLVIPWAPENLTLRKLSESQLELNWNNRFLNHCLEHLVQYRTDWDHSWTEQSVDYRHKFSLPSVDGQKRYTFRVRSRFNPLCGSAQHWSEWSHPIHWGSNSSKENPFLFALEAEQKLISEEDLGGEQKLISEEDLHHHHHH
How it was run: as §2

[9] = biological target: T5, Human IL2Rγ extracellular domain expressed with a C-terminal mouse IgG2a Fc tag (human); test: SPR Biacore 4000, anti-hFc-captured mAb, 37 C
T5 construct: whole entry is the Fc-fused construct; also called hIL-2Rg-mFc
T5 chain: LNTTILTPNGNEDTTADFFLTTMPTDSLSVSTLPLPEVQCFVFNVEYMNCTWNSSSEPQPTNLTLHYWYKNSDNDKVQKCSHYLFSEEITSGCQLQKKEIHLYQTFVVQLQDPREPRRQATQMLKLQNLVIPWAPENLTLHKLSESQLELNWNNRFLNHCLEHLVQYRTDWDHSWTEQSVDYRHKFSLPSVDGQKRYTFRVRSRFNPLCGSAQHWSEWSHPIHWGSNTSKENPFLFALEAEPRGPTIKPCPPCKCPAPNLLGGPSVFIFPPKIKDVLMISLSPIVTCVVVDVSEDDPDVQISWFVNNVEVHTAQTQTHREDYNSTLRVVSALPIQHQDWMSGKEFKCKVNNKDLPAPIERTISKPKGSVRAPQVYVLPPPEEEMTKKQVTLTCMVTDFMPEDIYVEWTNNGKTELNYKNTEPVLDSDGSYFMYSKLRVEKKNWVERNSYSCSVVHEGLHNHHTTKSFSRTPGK
How it was run: as §2

[10] = biological target: T6, Mouse IL2Rγ extracellular domain expressed with a C-terminal myc-myc-hexahistidine tag (mouse); test: SPR Biacore 4000, anti-hFc-captured mAb, 37 C
T6 construct: whole entry is the tagged construct; also called mIL-2Rg-MMH
T6 chain: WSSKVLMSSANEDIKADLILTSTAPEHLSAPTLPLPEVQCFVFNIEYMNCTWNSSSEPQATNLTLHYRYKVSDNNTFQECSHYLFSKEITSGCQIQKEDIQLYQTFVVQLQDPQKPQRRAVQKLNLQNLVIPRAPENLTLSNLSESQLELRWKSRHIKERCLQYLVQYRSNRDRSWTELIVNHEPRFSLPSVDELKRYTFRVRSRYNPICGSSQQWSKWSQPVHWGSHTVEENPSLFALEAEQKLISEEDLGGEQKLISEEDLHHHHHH
How it was run: as §2

[11] = biological target: T7, Rat IL2Rγ extracellular domain expressed with a C-terminal myc-myc-hexahistidine tag (rat); test: SPR Biacore 4000, anti-hFc-captured mAb, 37 C
T7 construct: whole entry is the tagged construct; also called rIL-2Rg-MMH; rat IL-2Rg-MMH
T7 chain: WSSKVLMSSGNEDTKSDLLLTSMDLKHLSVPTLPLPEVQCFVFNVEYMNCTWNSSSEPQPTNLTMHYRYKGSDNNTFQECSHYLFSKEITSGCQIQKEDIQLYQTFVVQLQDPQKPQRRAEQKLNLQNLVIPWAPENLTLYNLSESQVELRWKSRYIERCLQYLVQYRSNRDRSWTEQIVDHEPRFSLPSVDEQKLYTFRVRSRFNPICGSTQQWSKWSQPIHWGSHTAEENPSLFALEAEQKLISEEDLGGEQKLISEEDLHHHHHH
How it was run: as §2

[12] = biological target: T5, Human IL2Rγ extracellular domain …; test: SPR Biacore 4000, anti-hFc-captured mAb, 37 C; computed with kd fixed at 1.00E-05
Description: as §1
(§3) The dissociation of monoclonal antibody bound IL2Rγ reagents were monitored for 8-10 minutes in HBS-ET running buffer. Kinetic association (kₐ) and dissociation (kd) rate constants were determined by fitting the real-time sensorgrams to a 1:1 binding model using Scrubber 2.0c curve fitting software. Binding dissociation equilibrium constants (KD) and dissociative half-lives (t_{1/2}) were calculated from the kinetic rate constants as: […]

[13] = biological target: T5, Human IL2Rγ extracellular domain …; test: SPR Biacore 4000, anti-hFc-captured mAb, 25 C
How it was run: as §2

[14] = biological target: T6, Mouse IL2Rγ extracellular domain …; test: SPR Biacore 4000, anti-hFc-captured mAb, 25 C
How it was run: as §2

[15] = biological target: T7, Rat IL2Rγ extracellular domain …; test: SPR Biacore 4000, anti-hFc-captured mAb, 25 C
How it was run: as §2

[16] = biological target: T5, Human IL2Rγ extracellular domain …; test: SPR Biacore 4000, anti-hFc-captured mAb, 37 C; no dissociation observed, kd manually fixed at 1.00E-05
[17] = biological target: T2, D1 domain of human IL-2Rγ extracellular …; test: SPR, mAb captured on anti-hFc, 25 C; 25 C
Description: as §1, §3

100 nM Ag Bound [1]: 0 RU
100 nM Ag Bound [2]: 38 RU
Kd [2]: 5.34 nM
koff [2]: 0.00107 s⁻¹
kon [2]: 200000 M⁻¹ s⁻¹
t½ [2]: 11 min
IC50; IL-2 30 pM; NK92/hIL7R/STAT3-luc [3]: 2.7e-08 M
IC50; IL-4 250 pM; Ramos.2G6.4C10/STAT3-luc [3]: 1.9e-09 M
IC50; IL-7 50 pM; NK92/hIL7R/STAT3-luc [3]: 3e-09 M
IC50; IL-9 20 pM; NK92/hIL7R/STAT3-luc [3]: 7.1e-09 M
IC50; IL-15 60 pM; NK92/hIL7R/STAT3-luc [3]: 8.5e-09 M
IC50; IL-21 5 pM; NK92/hIL7R/STAT3-luc [3]: > 1e-07 M
Max Inhibition (%); IL-2 30 pM; NK92/hIL7R/STAT3-luc [3]: 81%
Max Inhibition (%); IL-4 250 pM; Ramos.2G6.4C10/STAT3-luc [3]: 101%
Max Inhibition (%); IL-7 50 pM; NK92/hIL7R/STAT3-luc [3]: 100%
Max Inhibition (%); IL-9 20 pM; NK92/hIL7R/STAT3-luc [3]: 100%
Max Inhibition (%); IL-15 60 pM; NK92/hIL7R/STAT3-luc [3]: 92%
Max Inhibition (%); IL-21 5 pM; NK92/hIL7R/STAT3-luc [3]: 35%
IC50; IL-9 (2 nM)-induced STAT3 phosphorylation, in vitro differentiated human mast cells [4]: 0.441 nM
100 nM Ag Bound [5]: 16 RU
Kd [5]: 20 nM
koff [5]: 0.00507 s⁻¹
kon [5]: 254000 M⁻¹ s⁻¹
t½ [5]: 2.3 min
100 nM Ag Bound [6]: 0 RU
binding result [6]: no binding (tested: 100 nM)
IC50; IL-2 (10 nM)-induced STAT phosphorylation, human CD4+ T cells [7]: 2.06 nM
IC50; IL-4 (50 pM)-induced STAT phosphorylation, human CD4+ T cells [7]: 1.1e-09 M
IC50; IL-7 (1 pM)-induced STAT phosphorylation, human CD4+ T cells [7]: 8.92e-10 M
IC50; IL-15 (0.5 nM)-induced STAT phosphorylation, human CD4+ T cells [7]: 2.55 nM
IC50; IL-21 (50 pM)-induced STAT phosphorylation, human CD4+ T cells [7]: 2.28e-09 M
B1: H4H12889P (antibody, human IgG4 S228P, kappa, V domains shown)
VH: EVQLVESGGGLVQPGGSLRLSCAASGFIFSSYEMHWVRQAPGKGLEWISYISSSGTTIYYADSVKGRFTISRDNAKNSLYLHMNSLRAEDTAVYYCTRARITGTFDVFDIWGQGTMVTVSS
VL: DIQMTQSPSSLSASVGDRVTITCRASQSISSYLNWYQQKPGKAPKLLIFAASNLQSGVPSRFSGSRSGTDFTLTISSLQPEDFATYYCQQNYNIPYTFGQGTKLEIKR
notes: human IgG4; also called REGN7257

100 nM Ag Bound [8]: 44 RU
Kd [8]: 4.18 nM
koff [8]: 0.00129 s⁻¹
kon [8]: 308000 M⁻¹ s⁻¹
t1/2 [8]: 9 min
50 nM Ag Bound [9]: 47 RU
kon [9]: 223000 M⁻¹ s⁻¹
100 nM Ag Bound [10]: 2 RU
100 nM Ag Bound [11]: 5 RU
Kd [12]: ≤ 0.0448 nM
t1/2 [12]: ≥ 1160 min
50 nM Ag Bound [13]: 82 RU
Kd [13]: 0.0564 nM
koff [13]: 1.75e-05 s⁻¹
kon [13]: 310000 M⁻¹ s⁻¹
t1/2 [13]: 661 min
100 nM Ag Bound [14]: 2 RU
binding result [14]: no binding (tested: 100 nM)
100 nM Ag Bound [15]: 3 RU
binding result [15]: no binding (tested: 100 nM)
koff [16]: ≤ 1e-05 s⁻¹
B2: H4H12922P2 (antibody, human IgG4 S228P, kappa, V domains shown)
VH: QVQLVESGGGVVKPGGSLRLSCAASGFTFSNSGIHWVRQAPGKGLEWVALISYAGSNKYYADSVKGRFTISRDNSKNTLSLQMNSLRAEDTAVYYCAKEVWTGTYDSFDMWGRGTMVTVSS
VL: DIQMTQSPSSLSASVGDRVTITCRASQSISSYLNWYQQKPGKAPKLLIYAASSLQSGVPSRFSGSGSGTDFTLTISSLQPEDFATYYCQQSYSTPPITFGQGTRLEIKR
notes: fully human anti-IL2Rgamma mAb, human IgG4 Fc; also called REGN7256

100 nM Ag Bound [1]: 0 RU
Kd [17]: 195 nM
koff [17]: 0.0273 s⁻¹
kon [17]: 140000 M⁻¹ s⁻¹
t½ [17]: 0.4 min
100 nM Ag Bound [6]: 0 RU
binding result [6]: no binding (tested: 100 nM)
B3: H4H12926P2 (antibody, human IgG4 S228P, kappa, V domains shown)
VH: QVQLQQSGPGLVKPSQTLSLTCAISGDSVSSNIAAWNWIRLSPSRGLEWLGRTFFRSTWFYDYSLSVKGRITINPDTSKNQFSLHLNSVTPEDAAVYYCARTGRRWSLDYWGQGTLVTVSS
VL: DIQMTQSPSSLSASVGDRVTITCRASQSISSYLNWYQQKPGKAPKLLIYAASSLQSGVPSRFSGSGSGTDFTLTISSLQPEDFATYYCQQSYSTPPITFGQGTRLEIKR
notes: human IgG4
